The text below walks through data of PMC10676424, “VirB, a transcriptional activator of virulence in Shigella flexneri, uses CTP as a cofactor” (Communications Biology, 2023).

Changes are numbered by the printed parent chain. Numbers in names are those of the source.

Series [1] concerns the target T1, Sfl VirB (Shigella flexneri, UniProt P0A247).
T1 construct: full length, N-terminal GFP tag removed with HRV-3C protease, made in E. coli BL21-Gold (DE3), dimer; gene on invasion plasmid pINV
Description: isothermal titration calorimetry. It counts as binding.

Series [2] concerns the molecule itself. Description: cross-linking; plasmid entrapment assay: 2 uM VirB, 250 uM CTP, 50 nM plasmid DNA, 1 mM BMOE, room temperature; low stringency buffer (150 mM NaCl, 50 mM Tris-HCl pH 7.5, 5 mM MgCl2) or high stringency buffer (25 mM HEPES/NaOH pH 7.5, 500 mM NaCl, 5 mM MgCl2, 1 mM DTT, 10 uM BSA, 0.01% Tween 20); SDS-PAGE and agarose gel.
Series [3] concerns the molecule itself. Briefly: cross-linking; site-specific cysteine cross-linking with 1 mM BMOE; 10 uM protein, with or without 1 mM CTP and 1 uM 40-bp DNA; 150 mM NaCl (also 500/1000 mM), 50 mM Tris-HCl pH 7.5, 5 mM MgCl2; room temperature (25 °C); SDS-PAGE, Coomassie, band quantification.

T1 sequence (P0A247 whole entry): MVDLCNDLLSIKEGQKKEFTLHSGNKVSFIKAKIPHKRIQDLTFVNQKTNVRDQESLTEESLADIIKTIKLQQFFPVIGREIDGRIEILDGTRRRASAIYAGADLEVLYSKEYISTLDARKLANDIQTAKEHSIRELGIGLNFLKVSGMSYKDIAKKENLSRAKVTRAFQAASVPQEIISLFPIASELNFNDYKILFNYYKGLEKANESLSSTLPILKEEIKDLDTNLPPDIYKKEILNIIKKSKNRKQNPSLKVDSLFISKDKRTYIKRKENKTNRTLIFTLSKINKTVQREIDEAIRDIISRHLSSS

A word on the Kd: it is the constant that tells how readily two partners part at equilibrium. A higher Kd goes with weaker binding. For the molecule `Nc1ccn([C@@H]2O[C@H](COP(=O)(O)OP(=O)(O)OP(=O)(O)O)[C@@H](O)[C@H]2O)c(=O)n1` [CTP], the dissociation constant (Kd) in series [1] is about 1 µM.

B1: VirB(C5S, Q15C, A297C) (natural protein)
chain: MVDLSNDLLSIKEGCKKEFTLHSGNKVSFIKAKIPHKRIQDLTFVNQKTNVRDQESLTEESLADIIKTIKLQQFFPVIGREIDGRIEILDGTRRRASAIYAGADLEVLYSKEYISTLDARKLANDIQTAKEHSIRELGIGLNFLKVSGMSYKDIAKKENLSRAKVTRAFQAASVPQEIISLFPIASELNFNDYKILFNYYKGLEKANESLSSTLPILKEEIKDLDTNLPPDIYKKEILNIIKKSKNRKQNPSLKVDSLFISKDKRTYIKRKENKTNRTLIFTLSKINKTVQREIDECIRDIISRHLSSS
notes: not shown: GFP, N-terminal, cleaved
In general, stoichiometry N refers to the number of molecules, sites or subunits per partner or assembly. As for B1, the “stoichiometry N” value in series [2] worked out at 2.

B2: VirB (natural protein)
chain: B1 chain with S5C, C15Q, C297A
notes: as for B1
As to B2, the binding result in series [3] is listed as “binds”.

B3: VirB(C5S, I30C) (natural protein)
chain: B1 chain with C15Q, I30C, C297A
notes: also called engineered C5S, I30C; not shown: GFP, N-terminal, cleaved
With B3, the binding result in series [3] was “binds”.
